Experimental findings from patent US11377503 are described below.

For assay [1], the target named is T1, CD39-L4 (ENTPD5) (human, UniProt O75356).
T1 chain: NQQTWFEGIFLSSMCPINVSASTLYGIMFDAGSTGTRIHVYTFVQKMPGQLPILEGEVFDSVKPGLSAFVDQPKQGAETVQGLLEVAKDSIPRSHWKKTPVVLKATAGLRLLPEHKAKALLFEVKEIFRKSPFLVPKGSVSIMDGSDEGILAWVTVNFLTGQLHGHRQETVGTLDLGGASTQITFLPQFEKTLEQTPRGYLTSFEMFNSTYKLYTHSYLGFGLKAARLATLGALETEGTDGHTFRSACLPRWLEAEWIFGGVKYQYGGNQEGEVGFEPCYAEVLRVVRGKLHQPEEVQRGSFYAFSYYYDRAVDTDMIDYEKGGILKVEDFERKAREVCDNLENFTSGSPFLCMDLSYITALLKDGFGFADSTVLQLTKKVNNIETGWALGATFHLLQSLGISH
Kind of assay: ELISA. Background: In an ELISA, binding on a coated surface is turned into a signal by an enzyme label.

The target of assay [2] is T2, human CD39 (Ramos cells) (human, UniProt P49961).
T2 chain: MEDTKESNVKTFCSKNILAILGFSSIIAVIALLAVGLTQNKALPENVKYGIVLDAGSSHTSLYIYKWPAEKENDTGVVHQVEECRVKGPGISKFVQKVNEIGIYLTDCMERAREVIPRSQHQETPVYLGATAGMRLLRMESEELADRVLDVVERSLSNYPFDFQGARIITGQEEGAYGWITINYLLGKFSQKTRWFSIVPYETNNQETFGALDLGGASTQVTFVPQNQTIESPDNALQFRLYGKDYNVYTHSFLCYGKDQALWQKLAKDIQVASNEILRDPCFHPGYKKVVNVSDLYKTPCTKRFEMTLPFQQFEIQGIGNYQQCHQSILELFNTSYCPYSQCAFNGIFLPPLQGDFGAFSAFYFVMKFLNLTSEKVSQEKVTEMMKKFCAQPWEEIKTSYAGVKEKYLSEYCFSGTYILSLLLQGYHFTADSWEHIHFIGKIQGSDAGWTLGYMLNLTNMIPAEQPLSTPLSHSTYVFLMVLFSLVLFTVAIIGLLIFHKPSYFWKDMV
Kind of assay: FACS, Ramos cells, second experiment. In general terms: In flow cytometry, cells or beads pass a laser one at a time.

The target in assay [3] is T3, murine CD39 (CHO-moCD39) (mouse, UniProt P55772).
T3 chain: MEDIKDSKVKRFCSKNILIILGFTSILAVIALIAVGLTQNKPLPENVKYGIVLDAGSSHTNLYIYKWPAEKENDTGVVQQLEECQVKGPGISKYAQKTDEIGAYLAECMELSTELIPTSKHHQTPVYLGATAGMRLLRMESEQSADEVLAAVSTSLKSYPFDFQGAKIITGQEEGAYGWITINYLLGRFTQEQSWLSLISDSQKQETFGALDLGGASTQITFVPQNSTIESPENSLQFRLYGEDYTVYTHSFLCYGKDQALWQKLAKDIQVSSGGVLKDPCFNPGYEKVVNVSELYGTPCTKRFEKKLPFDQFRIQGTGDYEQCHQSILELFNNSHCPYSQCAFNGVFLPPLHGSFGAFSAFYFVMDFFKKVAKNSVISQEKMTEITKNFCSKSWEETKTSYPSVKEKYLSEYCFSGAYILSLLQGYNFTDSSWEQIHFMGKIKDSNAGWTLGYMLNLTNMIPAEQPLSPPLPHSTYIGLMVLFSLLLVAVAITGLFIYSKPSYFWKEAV
Kind of assay: FACS.

The target of assay [4] is T4, CD39-L3 (ENTPD3) (human, UniProt O75355).
T4 chain: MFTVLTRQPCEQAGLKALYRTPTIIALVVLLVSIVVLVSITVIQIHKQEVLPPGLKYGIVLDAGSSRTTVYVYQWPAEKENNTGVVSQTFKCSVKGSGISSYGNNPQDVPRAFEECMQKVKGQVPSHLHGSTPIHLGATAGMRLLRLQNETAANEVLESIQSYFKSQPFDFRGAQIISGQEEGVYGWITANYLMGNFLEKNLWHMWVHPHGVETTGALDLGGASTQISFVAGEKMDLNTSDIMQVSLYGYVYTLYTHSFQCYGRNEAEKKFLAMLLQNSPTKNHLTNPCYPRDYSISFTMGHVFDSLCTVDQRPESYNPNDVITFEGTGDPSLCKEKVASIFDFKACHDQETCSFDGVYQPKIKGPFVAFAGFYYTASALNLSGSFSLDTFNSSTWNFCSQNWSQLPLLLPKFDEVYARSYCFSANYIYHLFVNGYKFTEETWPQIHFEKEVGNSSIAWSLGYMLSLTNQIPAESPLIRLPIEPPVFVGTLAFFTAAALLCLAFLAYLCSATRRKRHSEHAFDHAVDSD
Kind of assay: ELISA.

Assay [5] addresses T5, CD39-L2 (ENTPD6) (human, UniProt O75354).
T5 chain: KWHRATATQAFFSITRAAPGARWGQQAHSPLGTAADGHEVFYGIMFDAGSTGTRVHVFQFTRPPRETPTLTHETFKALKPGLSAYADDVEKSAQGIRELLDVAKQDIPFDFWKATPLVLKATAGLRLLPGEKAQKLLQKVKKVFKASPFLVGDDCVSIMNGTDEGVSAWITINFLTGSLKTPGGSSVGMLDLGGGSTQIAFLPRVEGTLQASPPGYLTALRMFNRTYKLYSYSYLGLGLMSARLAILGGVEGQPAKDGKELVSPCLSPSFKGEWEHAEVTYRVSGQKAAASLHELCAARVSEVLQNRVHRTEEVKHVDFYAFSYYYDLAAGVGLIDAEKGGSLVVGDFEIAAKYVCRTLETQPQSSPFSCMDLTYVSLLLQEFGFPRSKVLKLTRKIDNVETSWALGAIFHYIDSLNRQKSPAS
Kind of assay: ELISA.

Assay [6] deals with T2, human CD39 (Ramos cells). Kind of assay: FACS, Ramos cells, first experiment.
Assay [7] has as its target T6, CD39-L1 (ENTPD2) (human, UniProt Q9Y5L3).
T6 chain: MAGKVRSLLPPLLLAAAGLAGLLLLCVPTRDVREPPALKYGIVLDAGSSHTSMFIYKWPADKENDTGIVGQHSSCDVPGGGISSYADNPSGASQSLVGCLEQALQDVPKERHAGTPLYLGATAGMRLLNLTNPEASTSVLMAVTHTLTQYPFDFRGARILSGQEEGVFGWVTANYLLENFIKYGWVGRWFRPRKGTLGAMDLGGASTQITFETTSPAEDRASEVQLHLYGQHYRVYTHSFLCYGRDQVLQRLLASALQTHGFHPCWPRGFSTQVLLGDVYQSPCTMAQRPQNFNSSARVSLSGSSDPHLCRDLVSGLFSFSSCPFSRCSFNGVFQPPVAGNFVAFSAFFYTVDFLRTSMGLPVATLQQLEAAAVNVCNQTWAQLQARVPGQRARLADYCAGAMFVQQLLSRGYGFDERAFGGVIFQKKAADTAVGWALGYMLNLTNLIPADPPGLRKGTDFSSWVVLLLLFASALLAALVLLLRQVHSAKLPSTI
Kind of assay: ELISA.

Assay [8] addresses T7, CD39 mutant 19 (human, UniProt P49961).
T7 chain: T2 chain with R138A, M139A, E142K
The assay can be described thus: FACS.

Substitutions are numbered along the chain they refer to.

Usually EC50 stands for the concentration needed to bring the measured effect to its halfway point. Low values mean an effect from little substance, high ones a need for much substance.

B1: I-394 (antibody, V domains shown)
VH: EVKLQQSGPELVKPGASVKMSCKASGYTFTDYNMHWVKQSPGRTLEWIGYIVPLNGGSTFNQKFKGRATLTVNTSSRTAYMELRSLTSEDSAAYYCARGGTRFAYWGQGTLVTVSA
VL: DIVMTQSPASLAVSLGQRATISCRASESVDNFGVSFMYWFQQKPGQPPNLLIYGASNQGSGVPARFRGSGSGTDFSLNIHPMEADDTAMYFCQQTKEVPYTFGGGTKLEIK
Consider B1, for which the binding result in assay [1], in assay [3], in assay [4], in assay [5], in assay [7] and in assay [8] was “no binding” throughout. Further, the results for the EC50 in assay [2] and in assay [6] were 0.19 µg/mL and 0.16 µg/mL, respectively.
